This note sets out measurements from publication PMC7708434 (Biochimica et biophysica acta. General subjects, 2020).

Like-named read-outs stand apart in the source and are kept apart here.

By stoichiometry N is commonly meant a count of units in the complex or per binding partner.

Data set [1] deals with the molecule itself. The data set is described as follows: crystal structure.
Data set [2] concerns the molecule itself. Kind of data set: crystal structure. This is another data set of the same source.

B1: 4-hydroxy-tetrahydrodipicolinate reductase (DapB) from Vibrio vulnificus strain CMCP6 (enzyme, UniProt Q8DEM0 1-269, looked up)
chain: MVRIAVAGAAGRMGRNLVKAAHHNPVAKVAAGSERPESSLVGVDLGELCGEGKFDVVVCDDLAKQIDQFDVIIDFTAPASTLNNLALCQQYGKSIVIGTTGFTEEQREQIDLVAQQVPVVMAPNYSVGVNLVFKLLEKAAKVMGDYCDIEIVEAHHRHKVDAPSGTAIGMGEAIAGAMGNKLSDVAVYAREGITGERTKDEIGFATIRAGDIVGEHTAMFADIGERVEITHKATDRMTFANGAVKAAVWLHEKPAGFYTMTDVLGLNDL
Take B1: in the data set “crystal structure [1]”, the “stoichiometry N” value worked out at 4.

B2: 4-hydroxy-tetrahydrodipicolinate reductase (DapB) from Mycobacterium tuberculosis HKBS1 (enzyme)
chain: MRVGVLGAKGKVGATMVRAVAAADDLTLSAELDAGDPLSLLTDGNTEVVIDFTHPDVVMGNLEFLIDNGIHAVVGTTGFTAERFQQVESWLVAKPNTSVLIAPNFAIGAVLSMHFAKQAARFFDSAEVIELHHPHKADAPSGTAARTAKLIAEARKGLPPNPDATSTSLPGARGADVDGIPVHAVRLAGLVAHQEVLFGTEGETLTIRHDSLDRTSFVPGVLLAVRRIAERPGLTVGLEPLLDLH
As to B2, the “stoichiometry N” value in “crystal structure [2]” is 4.
